The record followed here is publication PMC9018702.

In data set [1] the target is T1, MBP-TDR (Oryza sativa (ORF cloned from ZH11), UniProt Q6YUS3 1-552). Briefly: EMSA; EMSA: 10 mM Tris-HCl pH 7.5, 50 mM KCl, 5 mM MgCl2, 1 mM DTT, 2.5% glycerol, 0.05% NP-40, 50 ng/uL poly(dI-dC), 10 fmol probe, 1 ug protein in 20 uL, room tempe. (In general: Mobility shift assays separate free from complexed probe on a gel.)
Data set [2] has as its target T1, MBP-TDR. Briefly: competition; 10-, 20-, 100-fold excess unlabeled probe eliminates shift; EMSA: 10 mM Tris-HCl pH 7.5, 50 mM KCl, 5 mM MgCl2, 1 mM DTT, 2.5% glycerol, 0.05% NP-40, 50 ng/uL poly(dI-dC), 10 fmol probe, 1 ug protein in 20 uL, room tempe.

B1: EAT1 promoter P1 probe (dsDNA)
DNA 1: GCGTATCGTGGTCATCTGTCTATTTTACATGCACTTGTAGCTGGATAAA
DNA 2: TTTATCCAGCTACAAGTGCATGTAAAATAGACAGATGACCACGATACGC
With B1, the binding result with MBP-TDR [1] is on record as “binds”.

B2: EAT1 promoter P1 unlabeled competitor (dsDNA)
DNA 1: GCGTATCGTGGTCATCTGTCTATTTTACATGCACTTGTAGCTGGATAAA
DNA 2: TTTATCCAGCTACAAGTGCATGTAAAATAGACAGATGACCACGATACGC
Take B2: the binding result with MBP-TDR [2] is recorded as “binds”.
